The target in assay [1] is T1, mouse insulin receptor (mouse, UniProt P15208 28-1372).
T1 construct: whole, on cells; also called muINSR; mINSR
Put plainly: FACS on mouse INSR; conditions not given on the sheet.

In the next assay the target is T2, human insulin receptor (human, UniProt P06213 28-1382).
T2 construct: whole, on cells; Uncomplexed receptor on serum-starved cells (CHOK1 transfectants or IM-9); also called hINSR; INSR
Kind of assay: FACS, serum-starved CHO-K1 cells expressing human INSR, no insulin. Background: Flow cytometry measures light scatter and fluorescence of single cells or particles in a stream.

Assay [2] addresses T3, mouse insulin receptor complexed with human insulin (mouse; human, UniProt P15208 28-1372; P01308 25-54; P01308 90-110).
T3 construct: whole, on cells;mature; also called muINSR/hINS complex
Put plainly: FACS, CHO-K1 mouse INSR cells, signal with insulin divided by signal without insulin.

Assay [3] has as its target T3, mouse insulin receptor complexed with …. Put plainly: FACS, serum-starved CHO-K1 cells expressing mouse INSR, with insulin.
Assay [4] addresses T1, mouse insulin receptor. Kind of assay: FACS, serum-starved CHO-K1 cells expressing mouse INSR, no insulin.

Where a chain is given by its changes, count along the chain named.

B1: Ab032 (antibody, V domains shown)
VH: EVQLLESGGGLVQPGGSLRLSCAASGFTFSNYAMGWVRQAPGKGLEWVSSISGSGGTTYYADSVKGRFTISRDNSKNTLYLQMNSLRAEDTAVYYCARHKGLQPLDYWGQGTLVTVSS
VL: QSVLTQPPSASGTPGQRVTISCSGSISNIGSNYVSWYQQLPGTAPKLLIYGNSNRPSGVPDRFSGSKSGTSASLAISGLRSEDEADYYCAAWDDSLSPHVVFGGGTKLTVLG
notes: also called XPA.015.093
As for B1, the binding result with mouse insulin receptor [1] is given as “binds”.

B2: Ab006 (antibody, V domains shown)
VH: B1 VH
VL: B1 VL
notes: also called XPA.015.013
With B2, the binding result in the assay with mouse insulin receptor [1] is on record as “binds”.

B3: Ab036 (antibody, V domains shown)
VH: B1 VH
VL: B1 VL with I26S, S31G, Y33S, S35H
notes: also called XPA.015.047
As to B3, the binding result with mouse insulin receptor [1] is “binds”.

B4: Ab011 (antibody, V domains shown)
VH: B1 VH with S118F
VL: B1 VL
notes: also called XPA.015.085
Turning to B4, the binding result in the assay with mouse insulin receptor [1] was “binds”.

B5: Ab009 (antibody, V domains shown)
VH: B1 VH with G15W, L79P
VL: B1 VL
notes: also called XPA.015.075
Take B5: the binding result in the assay with mouse insulin receptor [1] is “binds”.

B6: Ab031 (antibody, V domains shown)
VH: EVQLLESGGGLVQPGGSLRLSCAASGFTFSSNYMSWVRQAPGKGLEWVSSISGGSTYYADSRKGRFTISRDNSKNTLYLQMNSLRAEDTAVYYCARLDWSSGAFDIWGQGTLVTVSS
VL: QSVLTQPPSASGTPGQRVTISCSGRSSNIGYNYVSWYQQLPGTAPKLLIYGNSNRPSGVPDRFSGSKSGTSASLAISGLRSEDEADYYCAAWDDSLSGPVFGGGTKLTVLG
notes: printed on the sheet as Ab031` with a stray mark; also called XPA.015.037
As to B6, in the assay with mouse insulin receptor [1], the binding result is on record as “no binding”.

B7: Ab027 (antibody, V domains shown)
VH: EVQLLESGGGLVQPGGSLGLSCAASGFTFNNYWMSWVRQAPGKGLEWVSYISGSGRTIYYADSVKGRFTISRDNSKNTLYLQMNSLRAEDTAVYYCARVGSSGWYYFDYWGQGTLVTVSS
VL: B6 VL with G30E, Y31N, S97N, P99V
notes: also called XPA.015.042
For the molecule B7, the binding result with mouse insulin receptor [1] is given as “no binding”.

B8: Ab024 (antibody, V domains shown)
VH: EVQLLESGGGLVQPGGSLRLSCAASGFTFSDYYMSWIRRAPGKGLEWVSRISWNSGSIGYADSLKGRFTISRDNSKNTLYLQMNSLRAEDTAVYYCARERGYGYDYWGQGTLVTVSS
VL: B6 VL with R25T, I29L, Y31S, N32H, Y33T, G51D, S53N, N54E, G98A, P99W
notes: also called XPA.015.022
On to B8, for which, in the assay with mouse insulin receptor [1], the binding result was “no binding”.

B9: Ab028 (antibody, V domains shown)
VH: EVQLLESGGGLVQPGGSLRLSCAASGFTFRNYWMTWVRQAPGKGLEWVANIKQDGSEKYYVDSVKGRSTISRDNSKNTLYLQMNSLRAEDTAVYYCARQVGGGPFDIWGQGTLVTVSS
VL: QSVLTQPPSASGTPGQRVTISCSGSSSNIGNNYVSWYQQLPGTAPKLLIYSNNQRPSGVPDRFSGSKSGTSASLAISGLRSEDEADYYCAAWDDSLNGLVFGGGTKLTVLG
notes: also called XPA.015.059
As for B9, the binding result in the assay with mouse insulin receptor [1] is recorded as “no binding”.

B10: Ab014 (antibody, V domains shown)
VH: EVQLLESGGGLVQPGGSLRLSCAASGFTFSNAWMSWVRQAPGKGLEWVSAISGSGGSTYYADSVKGRFTISRDNSKNTLYLQMNSLRAEDTAVYYCAAPTVPYYYYGMDVWGQGTLVTVSS
VL: QSVLTQPPSASGTPGQRVTISCSGCSSNIGNNAVNWYQQLPGTAPKLLIYRSDQRLAGVPDRFSGSKSGTSASLAISGLRSEDEADYYCQSYDSSLIGHWVFGGGTKLTVLG
notes: also called XPA.015.158
As for B10, the binding result with mouse insulin receptor [1] is “binds”.

B11: Ab065 (antibody, IgG2, V domains shown)
VH: QVQLVQSGAEVKKPGESLKISCKGSGYSFTSYWIGWVRQMPGKGLEWMGIIYPGDSDTRYSPSFQGQVTISADKSISTAYLQWSSLKASDTAMYYCARHELGIDYWGQGTLVTVSS
VL: QAGLTQPPSVSKGLRQTATLTCTGDNNIVGDQGAAWLQQHQGHPPKLLSFRNNSRPSGISERFSASRSRNTASLTITRLQPEDAADYYCSAWDSFLSAWVFGGGTKLTVL
notes: also called XPA.015.214
B11: the “FACS area under log transformed data MFI” value came out at 205 in the assay with human insulin receptor, 177 in assay [3] and 483 with mouse insulin receptor [4]. Further, the “FACS area under log transformed data MFI ratio (+insulin/-insulin)” value in assay [2] was determined as 0.37.

B12: Ab040 (antibody, V domains shown)
VH: EVQLLESGGGLVQPGGSLRLSCAASGFTFSSYWMSWVRQAPGKGLEWVAVISKDGSSTDYAHSVKGRFTISRDNSKNTLYLQMNSLRAEDTAVYYCARDRDWIPGDVWGQGTLVTVSS
VL: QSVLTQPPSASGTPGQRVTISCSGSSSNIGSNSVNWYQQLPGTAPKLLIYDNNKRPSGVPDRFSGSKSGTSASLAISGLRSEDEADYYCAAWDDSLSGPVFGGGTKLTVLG
notes: also called XPA.015.077
Turning to B12, the binding result with mouse insulin receptor [1] is recorded as “binds”.

B13: Ab038 (antibody, V domains shown)
VH: EVQLLESGGGLVQPGGSLRLSCAASGFTFSNYAMTWVRQAPGKGLEWVSYIHAGGGTHYANSVKGRFTISRDNSKNTLYLQMNSLRAEDTAVYYCARDLHWEGWGLGFDYWGQGTLVTVSS
VL: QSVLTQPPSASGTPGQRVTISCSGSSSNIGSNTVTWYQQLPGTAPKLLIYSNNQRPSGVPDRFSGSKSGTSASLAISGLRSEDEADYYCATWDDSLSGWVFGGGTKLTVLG
notes: also called XPA.015.065
For the molecule B13, in the assay with mouse insulin receptor [1], the binding result is on record as “binds”.

B14: Ab042 (antibody, V domains shown)
VH: B13 VH
VL: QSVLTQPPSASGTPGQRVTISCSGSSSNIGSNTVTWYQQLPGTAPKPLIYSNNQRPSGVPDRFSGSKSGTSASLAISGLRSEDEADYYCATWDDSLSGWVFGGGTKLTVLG
notes: also called XPA.015.086
As for B14, the binding result with mouse insulin receptor [1] is reported as “no binding”.

B15: Ab018 (antibody, V domains shown)
VH: EVQLLESGGGLVQPGGSLRLSCAASGFTFSSYWMSWVRQAPGKGLEWVSGISGSGGYIHYADSVKGRFTISRDDSKNTLYLQMNSLRAEDTAVYYCAREGSGWLVDQWGQGTLVTVSS
VL: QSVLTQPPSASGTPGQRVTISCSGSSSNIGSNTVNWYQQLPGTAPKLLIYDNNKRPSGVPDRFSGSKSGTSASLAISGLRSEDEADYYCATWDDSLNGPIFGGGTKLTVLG
notes: also called XPA.015.139
On to B15, for which the binding result in the assay with mouse insulin receptor [1] is given as “binds”.

B16: Ab017 (antibody, V domains shown)
VH: EVQLLESGGGLVQPGGSLRLSCAASGFTFSSYSMNWVRQAPGKGLEWVSVIYSGDSTYYADSVKGRFTISRDNSKNTLYLQMNSLRAEDTAVYYCARQVRDGDYGDWFDPWGQGTLVTVSS
VL: QSVLTQPPSASGTPGQRVTISCTGSSSNIGAGYDVHWYQQLPGTAPKLLIYGNSNRPSGVPDRFSGSKSGTSASLAISGLRSEDEADYYCAAWDDSLSGWVFGGGTKLTVLG
notes: also called XPA.015.017
Turning to B16, the binding result in the assay with mouse insulin receptor [1] is reported as “binds”.

B17: Ab030 (antibody, V domains shown)
VH: EVQLLESGGGLVQPGGSLRLSCAASGFTFSSYSMNWVRQAPGKGLEWVSAISGSGGSTYYADSVKGRFTISRDNSKNTLYLQMNSLRAEDTAVYYCARDSWELLGYDAFDIWGQGTLVTVSS
VL: B16 VL with G52D, S54N, N55K, A92S, L97H, S98L, G99H, W100V, V101L
notes: also called XPA.015.036
As for B17, the binding result with mouse insulin receptor [1] was “binds”.

B18: Ab050 (antibody, IgG2, V domains shown)
VH: QVQLVQSGAELKKPGATVKISCKVSGYTFGDYHMHWVKQAPGKGLEWMGLVDPENGETEYGEKFQDRITMAADTSTDTAYMELSSLRSEDTAVYYCARSPSSSGYFRVDGFDIWGQGTMVTVSS
VL: NFMLTQPHSVSESPGKTVSISCTGSSGSIGSNYVQWYQQRPGSAPTTVIYEDNQRPSGVPDRFSGSIDSSSNSASLTISGLKTEDEADYYCQSYYNSNVVFGGGTKLTVL
notes: also called XPA.015.193
B18: the results for the “FACS area under log transformed data MFI” value (in the assay with human insulin receptor; in assay [3]; in the assay with mouse insulin receptor [4]) were 252, 170 and 424, respectively. In assay [2], the “FACS area under log transformed data MFI ratio (+insulin/-insulin)” value was determined as 0.4.

B19: Ab039 (antibody, V domains shown)
VH: EVQLLESGGGLVQPGGSLRLSCAASGFTFSSYWMSWVRQAPGKGLEWVSGISGSGGYTSYADSVKGRFTISRDNSKNTLYLQMNSLRAEDTAVYYCAKDSSDWYINSWGQGTLVTVSS
VL: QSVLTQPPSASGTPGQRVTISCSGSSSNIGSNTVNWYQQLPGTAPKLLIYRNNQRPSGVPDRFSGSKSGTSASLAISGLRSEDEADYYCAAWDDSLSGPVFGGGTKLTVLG
notes: also called XPA.015.074
As for B19, in the assay with mouse insulin receptor [1], the binding result is “binds”.

B20: Ab069 (antibody, IgG2, V domains shown)
VH: EVQLVQSGAEVKKPGESLKISCKGSGYSFTSYWIGWVRQMPGKGLEWMGIIYPGDSDTRYSPSFQGQVTISADKSISIAYLQWSSLKASDTAMYYCARLGRGYYGMDVWGQGTTVTVSS
VL: SSELTQDPAVSVALGQTVRITCQGDSLRSYYASWYQQKPGQAPVLVIYGKNNRPSGIPDRFSGSRSGNTASLTITGAQAEDEADYYCNSRDSSGNHVVFGGGTKVTVL
notes: also called XPA.015.222
Regarding B20, the “FACS area under log transformed data MFI” value came to 357 in the assay with human insulin receptor, 383 in assay [3] and 642 with mouse insulin receptor [4]. In addition, in assay [2], the “FACS area under log transformed data MFI ratio (+insulin/-insulin)” value turned out to be 0.6.

B21: Ab057 (antibody, IgG2, V domains shown)
VH: QMQLVQSGAEVKKPGESLKISCKGYGYRFSDNWIGWVRQMPGRGLEWMGIIYPGDSETRYSPSFQGQVTISADKSISTAYLQWSSLKASDTAMYYCARHAPLAVAGMALGDWGQGTLVTVSS
VL: QTVVTQEPSFSVSPGGTVTLTCGLTSGSVSTSYYPSWYQQTPGQAPRMLVHSTSTRYSGVPDRFSGSILGNKAALTITGAQADDESDYYCALYMGGGIYVFGGGTQLTVL
notes: also called XPA.015.200
For the molecule B21, the “FACS area under log transformed data MFI ratio (+insulin/-insulin)” value in assay [2] is 0.61. In addition, the “FACS area under log transformed data MFI” value in assay [3] worked out at 250; in the assay with mouse insulin receptor [4], 409.

B22: Ab002 (antibody, V domains shown)
VH: EVKLVESEEGLVKPGGSLKLSCAASGFTFSNYAMSWVRQTPEKRLEWVATISDGGHYTYYSDTIKGRFTISRDNAKNNLFLQLSHLKSEDTAIYYCARGTVFDYWGQGTTLTVSS
VL: DIQMTQTTSSLSASLGDRVTISCRASQDISNYLNWYQQKPDGTVKLLIYYTSRLHSGVPSRFSGSGSGTDYSLTISNLEPEDIATFYCQQYSDLPYTFGGGTKLEIKR
notes: also called XPA.015.190
On to B22, for which, in the assay with mouse insulin receptor [1], the binding result is “no binding”.

B23: Ab026 (antibody, V domains shown)
VH: EVQLLESGGGLVQPGGSLRLSCAASGFTFSNYVISWVRQAPGKGLEWVSAISGSGGSTFYPDSVKGRFTISRDNSKNTLYLQMNSLRAEDTAMYYCARVGLSGWYYFDYWGQGTLVTVSS
VL: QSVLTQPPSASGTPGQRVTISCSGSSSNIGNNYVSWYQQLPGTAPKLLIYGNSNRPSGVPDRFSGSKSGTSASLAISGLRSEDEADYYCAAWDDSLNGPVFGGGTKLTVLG
notes: also called XPA.015.026
For the molecule B23, in the assay with mouse insulin receptor [1], the binding result is given as “no binding”.

Values taken from patent US20160009800A1 (XOMA US, published 2016).
